We go through seven molecules from patent publication US20150104459A1.

The chains are these.
B1: TCN-527 (5086_C06) (antibody, V domains shown)
VH: QVQLQESGPGLVKPSETLSLNCAVSGGSISNYYWSWIRQPPGKGLEWIGYISYNGRPKYNPSLTSRVTISVDTSKDQFSLELRSVTAADTALYYCARETRFGELLSPYDAFEIWGQGTMVTVSS
VL: DIQMTQSPSSLSASVGDRVTMTCRASQNIRSYLNWYQQRPGTAPKLLIYAASTLHSGVPSRFSGGGSGTDFTLTINNLQPEDFASYYCQQSYDNPQTFGQGTKVEIK
B2: TCN-528 (5087_P17) (antibody, V domains shown)
VH: QVQLVQSGSEVKKPGASVKVSCKASGYTFTNYDINWIRQAPGQGLEWMGWINPNSGTTGSAQRFQGRVTITVDTSITTVYMELSSLRSDDTAIYYCARGRELLRLQHFLTDSQSERRDCFDPWGQGTLVTVSS
VL: DIQMTQSPSSLSASVGDRVTITCRANQDIGIYLNWYQQNPGKVPKLLLHGASSLQGGVPSRFSASGSGTDFTLTIHSLQPEDLATYYCQQSRRLPYTFGQGTRVELK
B3: TCN-553 (5261_C18) (antibody, V domains shown)
VH: QVQVVQSGTEVKKPGSSVKVSCQTSGGRFMSYAITWVRQAPGQGLEWMGGIVPVFGTANYAQKFQGRVTITTDDSTRTAYMELSSLRSEDTAVYYCGFRYGSGYGFDSWGQGTLVTVSS
VL: EIVLTQSPGTLSLSPGERATLSCRASQSVSSSYLAWYQKKPGQAPRLLIYGASTRATGIPDRFTGSGSGTDFTLSISRLEPEDFAVYYCQHFGTSVFTFGGGTKVEIK
B4: TCN-550 (5096_F06) (antibody, V domains shown)
VH: QVQLQESGPGLVKPSETLSLTCTVSGASINSHYWSWIRQPPGKGLEWIGYVYYSGSTTYNPSLKSRVTLSVDTSKNQFSLNLSSVTAADTAFYYCARHPYDVLTGSGDWFDPWGQGTLVTVSS
VL: SYVLTQAPSVSVAPGQTARITCGGNAIGSKKVHWYQHKAGQAPVLVVYDDTDRPSGIPERFSGSNSWSTATLTINRVEAGDEADYYCQVWDFTIDHVVFGGGTKLTVL
B5: TCN-546 (5089_L08) (antibody, V domains shown)
VH: QVQLQQWGAGLLKPSETLSLTCGVYGGSLSDYYWSWIRQPPGKGLEWIGEINHSGGTNYNPSLKRRVTISVDTSKKQFSLKMNSVTAADTAVYYCARGTDPDTEVYCRAGNCAAFDFWGQGTLVTVSS
VL: EIVLTQSPGTLSLSPGERATLSCRASHFVIGRAVAWYQQKPGQAPRLLIYGASSRATGIPDRFSGSGSGTDFTLTISRLETEDFAVFYCQHYGSSPRYAFGQGTKLEIK
B6: TCN-521 (3280_D18) (antibody, V domains shown)
VH: EVQLVQSGGGLVQPGGSLRLACVVSGFTVTSNYITWVRQAPGKGLEWVSVIYSHGRAYYSASVNGRFTISRHTSKNTVYLEMNSLRPEDTAVYYCAGGGLVGGYDEYFFDYWGQGTLATVSS
VL: ETVLTQSPGTLSLTPGERATLSCRVGQSVSGSHLAWYQQKPGQAPRLLIYGASSRATGIPDRFGGSVSGTDFTLTISRLEPEDSAVYYCQQYGDSRYTFGQGTKLEIK
B7: TCN-558 (5248_H10b) (antibody, V domains shown)
VH: QVQLVQSGSEVKKPGTSVKVSCTASGSVFTNYGISWVRQAPGQGLEWMGGIIPLFGAAKYAQKFQGRVTITADESTKTVYMELSRLTSKDTAIYFCAKAPRVYEYYFDQWGQGTPVTVSS
VL: EIVMTQFPATLSVSPGERVTLSCRASQSVSNNLAWYQQKPGQPPRLLIYDASTRATGVPAKFSGTGSGTEFTLSISSLQSEDFAVYYCQQYHNWPPSYSFGLGTKLEIK

In one test the target is recombinant soluble homotrimeric HA of A/Anhui/1/05 (H5N1) (Influenza A virus A/Anhui/1/2005 (H5N1)). Kind of test: HA microarray, BCC supernatant. The note with it: remark: other sources report otherwise.
With B1, the Trimeric HA Binding RLU stood at 21400 RLU.
Consider B2, for which the Trimeric HA Binding RLU is 49800 RLU.
On the same count and under the same terms, as for B3, the figure is 12600 RLU; as for B4, 1210 RLU.
On the same count and under the same terms, as for B5, the figure is 2040 RLU.

The target of a further test is recombinant soluble homotrimeric HA of A/California/4/09 (H1N1) (Influenza A virus A/California/04/2009 (H1N1)). Kind of test: HA microarray, BCC supernatant. The note with it: remark: other sources report otherwise.
For B1, the Trimeric HA Binding RLU amounted to 28000 RLU.
On the same count and under the same terms, as for B2, the figure is 48800 RLU; as for B3, 20300 RLU.
Take B5: the Trimeric HA Binding RLU stood at 350 RLU.

The next test has as its target recombinant soluble homotrimeric HA of A/Egypt/3300-NAMRU3/08 (H5N1) (Influenza A virus A/Egypt/3300-NAMRU3/2008 (H5N1)). Kind of test: HA microarray, BCC supernatant. The note with it: remark: other sources report otherwise.
On to B6, for which the Trimeric HA Binding RLU was 47900 RLU.
On the same count and under the same terms, under B3 stands 18800 RLU.

A further test addresses recombinant soluble homotrimeric HA of A/Hong Kong/2108/03 (H9N2) (Influenza A virus A/Hong Kong/2108/2003 (H9N2)). As to the kind of experiment: HA microarray, BCC supernatant. The note with it: remark: other sources report otherwise.
In the case of B6, the Trimeric HA Binding RLU was 93 RLU.
The same measure, in the same setting: under B1 stands 16000 RLU; under B2, 42000 RLU; under B4, 2280 RLU.
As to B5, the Trimeric HA Binding RLU came to 13000 RLU.

The target in another test is recombinant soluble homotrimeric HA of A/Indonesia/5/05 (H5N1) (Influenza A virus A/Indonesia/5/2005 (H5N1)). Kind of test: HA microarray, BCC supernatant. The note with it: remark: other sources report otherwise.
As for B6, the Trimeric HA Binding RLU came to 31500 RLU.
The same measure, in the same setting: under B1 stands 23800 RLU.
With B2, the Trimeric HA Binding RLU was 42800 RLU.
With B3, the Trimeric HA Binding RLU is 24400 RLU.
Same read-out and setting: as for B4, the figure is 9100 RLU; as for B5, 18400 RLU.

Another test has as its target recombinant soluble homotrimeric HA of A/Japan/305/57 (H2N2) (Influenza A virus A/Japan/305/1957 (H2N2)). As to the kind of experiment: HA microarray, BCC supernatant. The note with it: remark: other sources report otherwise.
With B6, the Trimeric HA Binding RLU is 6730 RLU.
With B1, the Trimeric HA Binding RLU was determined as 19300 RLU.
On the same count and under the same terms, under B2 stands 46400 RLU.
On the same count and under the same terms, as for B3, the figure is 25500 RLU; as for B4, 201 RLU; as for B5, 520 RLU.

The target in another test is recombinant soluble homotrimeric HA of A/Netherlands/219/03 (H7N7) (Influenza A virus A/Netherlands/219/03 (H7N7)). Kind of test: HA microarray, BCC supernatant. The note with it: remark: other sources report otherwise.
For B1, the Trimeric HA Binding RLU was 8890 RLU.
On the same count and under the same terms, under B2 stands 49300 RLU.

For another test, the target named is recombinant soluble homotrimeric HA of A/Solomon Islands/3/06 (H1N1) (Influenza A virus A/Solomon Islands/3/2006 (H1N1)). Kind of test: HA microarray, BCC supernatant. The note with it: remark: other sources report otherwise.
In the case of B6, the Trimeric HA Binding RLU stood at 39600 RLU.
The same measure, in the same setting: under B1 stands 16500 RLU.
As to B2, the Trimeric HA Binding RLU was found to be 44800 RLU.
Consider B3, for which the Trimeric HA Binding RLU worked out at 16300 RLU.
In the case of B4, the Trimeric HA Binding RLU was 204 RLU.

The target of the next test is recombinant soluble homotrimeric HA of A/Vietnam/1203/04 (H5N1) (Influenza A virus A/Vietnam/1203/2004 (H5N1)). As to the kind of experiment: HA microarray, BCC supernatant. The note with it: remark: other sources report otherwise.
Turning to B1, the Trimeric HA Binding RLU was determined as 21300 RLU.
Consider B2, for which the Trimeric HA Binding RLU stood at 45600 RLU.
Same read-out and setting: as for B3, the figure is 6560 RLU.
With B4, the Trimeric HA Binding RLU was found to be 277 RLU.
Same read-out and setting: under B5 stands 349 RLU.

For another test, the target named is recombinant soluble homotrimeric HA of A/Wisconsin/67/05 (H3N2) (Influenza A virus A/Wisconsin/67/2005 (H3N2)). As to the kind of experiment: HA microarray, BCC supernatant. The note with it: remark: other sources report otherwise.
Take B1: the Trimeric HA Binding RLU was 5720 RLU.
For the molecule B2, the Trimeric HA Binding RLU came out at 48800 RLU.
Consider B3, for which the Trimeric HA Binding RLU worked out at 20000 RLU.
Consider B4, for which the Trimeric HA Binding RLU amounted to 26300 RLU.
Turning to B5, the Trimeric HA Binding RLU was 30200 RLU.

The target in a further test is recombinant soluble homotrimeric HA of A/chicken/Vietnam/NCVD-016/08 (H5N1) (Influenza A virus A/chicken/Vietnam/NCVD-016/2008 (H5N1)). As to the kind of experiment: HA microarray, BCC supernatant. The note with it: remark: other sources report otherwise.
As to B6, the Trimeric HA Binding RLU turned out to be 32400 RLU.
Same read-out and setting: as for B1, the figure is 27000 RLU.
The same measure, in the same setting: as for B2, the figure is 38200 RLU.
On the same count and under the same terms, as for B3, the figure is 24200 RLU; as for B4, 361 RLU.
In the case of B5, the Trimeric HA Binding RLU was determined as 421 RLU.

The next test addresses recombinant soluble homotrimeric HA of A/duck/Yangzhou/02/2005 (H8N4) (Influenza A virus A/duck/Yangzhou/02/2005 (H8N4)). As to the kind of experiment: HA microarray, BCC supernatant. The note with it: remark: other sources report otherwise.
As for B1, the Trimeric HA Binding RLU was 28800 RLU.
The same measure, in the same setting: as for B2, the figure is 38400 RLU; as for B3, 28000 RLU.
For the molecule B4, the Trimeric HA Binding RLU was determined as 407 RLU.

The next test addresses recombinant soluble homotrimeric HA of A/northern shoveler/California/HKWF115/2007 (H6N1) (Influenza A virus A/northern shoveler/California/HKWF115/2007 (H6N1)). Kind of test: HA microarray, BCC supernatant. The note with it: remark: other sources report otherwise.
As to B6, the Trimeric HA Binding RLU was 48000 RLU.
Still for that read-out and setting: under B1 stands 30300 RLU; under B2, 46800 RLU.
With B3, the Trimeric HA Binding RLU worked out at 21700 RLU.

The next test has as its target recombinant soluble homotrimeric HA of A/swine/Ontario/01911-2/99 (H4N6) (Influenza A virus A/Swine/Ontario/01911-2/99 (H4N6)). Kind of test: HA microarray, BCC supernatant. The note with it: remark: other sources report otherwise.
With B1, the Trimeric HA Binding RLU turned out to be 7690 RLU.
Regarding B2, the Trimeric HA Binding RLU stood at 47500 RLU.
On the same count and under the same terms, under B3 stands 2580 RLU.

Another test addresses recombinant soluble homotrimeric HA, A/Anhui/1/05 (H5N1) (influenza A virus A/Anhui/1/2005 (H5N1)). Kind of test: microarray, trimeric HA, transfection supernatant. The note with it: remark: other sources report otherwise.
On to B3, for which the Trimeric HA Binding RLU came out at 8550 RLU.
Still for that read-out and setting: as for B5, the figure is 33300 RLU.

A further test addresses recombinant soluble homotrimeric HA, A/Hong Kong/156/97 (H5N1) (influenza A virus A/Hong Kong/156/97 (H5N1)). Kind of test: microarray, trimeric HA, transfection supernatant. The note with it: remark: other sources report otherwise.
Consider B3, for which the Trimeric HA Binding RLU is 36300 RLU.
As for B4, the Trimeric HA Binding RLU stood at 955 RLU.
Still for that read-out and setting: as for B5, the figure is 1240 RLU.

A further test has as its target recombinant soluble homotrimeric HA, A/Netherlands/219/03 (H7N7) (influenza A virus A/Netherlands/219/03 (H7N7)). As to the kind of experiment: microarray, trimeric HA, transfection supernatant. The note with it: remark: other sources report otherwise.
For the molecule B7, the Trimeric HA Binding RLU was 5840 RLU.

The target of a further test is recombinant soluble homotrimeric HA, A/chicken/Vietnam/NCVD-016/08 (H5N1) (influenza A virus A/chicken/Vietnam/NCVD-016/2008 (H5N1)). As to the kind of experiment: microarray, trimeric HA, transfection supernatant. The note with it: remark: other sources report otherwise.
For the molecule B7, the Trimeric HA Binding RLU is 33400 RLU.
As to B3, the Trimeric HA Binding RLU came to 34700 RLU.
In the case of B4, the Trimeric HA Binding RLU stood at 1800 RLU.
For B5, the Trimeric HA Binding RLU came out at 2940 RLU.

The target of a further test is recombinant soluble homotrimeric HA, A/duck/Yangzhou/02/2005 (H8N4) (influenza A virus A/duck/Yangzhou/02/2005 (H8N4)). As to the kind of experiment: microarray, trimeric HA, transfection supernatant. The note with it: remark: other sources report otherwise.
Take B3: the Trimeric HA Binding RLU stood at 12500 RLU.
Regarding B4, the Trimeric HA Binding RLU came to 4710 RLU.
With B5, the Trimeric HA Binding RLU amounted to 11400 RLU.

The target in a further test is recombinant soluble homotrimeric HA, A/northern shoveler/California/HKWF115/2007 (H6N1) (influenza A virus A/northern shoveler/California/HKWF115/2007 (H6N1)). Kind of test: microarray, trimeric HA, transfection supernatant. The note with it: remark: other sources report otherwise.
With B7, the Trimeric HA Binding RLU stood at 29400 RLU.
Still for that read-out and setting: under B3 stands 32500 RLU; under B4, 2300 RLU.
